Measurements from paper PMC7367873, “Dissecting the sequence determinants for dephosphorylation by the catalytic subunits of phosphatases PP1 and PP2A” (Nature Communications, 2020).

B1: SRPK1 (protein, UniProt Q96SB4 1-655, looked up)
SRSF protein kinase 1: MERKVLALQARKKRTKAKKDKAQRKSETQHRGSAPHSESDLPEQEEEILGSDDDEQEDPNDYCKGGYHLVKIGDLFNGRYHVIRKLGWGHFSTVWLSWDIQGKKFVAMKVVKSAEHYTETALDEIRLLKSVRNSDPNDPNREMVVQLLDDFKISGVNGTHICMVFEVLGHHLLKWIIKSNYQGLPLPCVKKIIQQVLQGLDYLHTKCRIIHTDIKPENILLSVNEQYIRRLAAEATEWQRSGAPPPSGSAVSTAPQPKPADKMSKNKKKKLKKKQKRQAELLEKRMQEIEEMEKESGPGQKRPNKQEESESPVERPLKENPPNKMTQEKLEESSTIGQDQTLMERDTEGGAAEINCNGVIEVINYTQNSNNETLRHKEDLHNANDCDVQNLNQESSFLSSQNGDSSTSQETDSCTPITSEVSDTMVCQSSSTVGQSFSEQHISQLQESIRAEIPCEDEQEQEHNGPLDNKGKSTAGNFLVNPLEPKNAEKLKVKIADLGNACWVHKHFTEDIQTRQYRSLEVLIGSGYNTPADIWSTACMAFELATGDYLFEPHSGEEYTRDEDHIALIIELLGKVPRKLIVAGKYSKEFFTKKGDLKHITKLKPWGLFEVLVEKYEWSQEEAAGFTDFLLPMLELIPEKRATAAECLRHPWLNS
B2: FAM83H (protein, UniProt Q6ZRV2 1-1179, looked up)
Protein FAM83H: MARRSQSSSQGDNPLAPGYLPPHYKEYYRLAVDALAEGGSEAYSRFLATEGAPDFLCPEELEHVSRHLRPPQYVTREPPEGSLLDVDMDGSSGTYWPVNSDQAVPELDLGWPLTFGFQGTEVTTLVQPPPPDSPSIKDEARRMIRSAQQVVAVVMDMFTDVDLLSEVLEAAARRVPVYILLDEMNAQHFLDMADKCRVNLQHVDFLRVRTVAGPTYYCRTGKSFKGHVKEKFLLVDCAVVMSGSYSFMWSFEKIHRSLAHVFQGELVSSFDEEFRILFAQSEPLVPSAAALARMDAYALAPYAGAGPLVGVPGVGAPTPFSFPKRAHLLFPPPREEGLGFPSFLDPDRHFLSAFRREEPPRMPGGALEPHAGLRPLSRRLEAEAGPAGELAGARGFFQARHLEMDAFKRHSFATEGAGAVENFAAARQVSRQTFLSHGDDFRFQTSHFHRDQLYQQQYQWDPQLTPARPQGLFEKLRGGRAGFADPDDFTLGAGPRFPELGPDGHQRLDYVPSSASREVRHGSDPAFAPGPRGLEPSGAPRPNLTQRFPCQAAARPGPDPAPEAEPERRGGPEGRAGLRRWRLASYLSGCHGEDGGDDGLPAPMEAEAYEDDVLAPGGRAPAGDLLPSAFRVPAAFPTKVPVPGPGSGGNGPEREGPEEPGLAKQDSFRSRLNPLVQRSSRLRSSLIFSTSQAEGAAGAAAATEKVQLLHKEQTVSETLGPGGEAVRSAASTKVAELLEKYKGPARDPGGGAGAITVASHSKAVVSQAWREEVAAPGAVGGERRSLESCLLDLRDSFAQQLHQEAERQPGAASLTAAQLLDTLGRSGSDRLPSRFLSAQSHSTSPQGLDSPLPLEGSGAHQVLHNESKGSPTSAYPERKGSPTPGFSTRRGSPTTGFIEQKGSPTSAYPERRGSPVPPVPERRSSPVPPVPERRGSLTLTISGESPKAGPAEEGPSGPMEVLRKGSLRLRQLLSPKGERRMEDEGGFPVPQENGQPESPRRLSLGQGDSTEAATEERGPRARLSSATANALYSSNLRDDTKAILEQISAHGQKHRAVPAPSPGPTHNSPELGRPPAAGVLAPDMSDKDKCSAIFRSDSLGTQGRLSRTLPASAEERDRLLRRMESMRKEKRVYSRFEVFCKKEEASSPGAGEGPAEEGTRDSKVGKFVPKILGTFKSKK
B3: EIF5B (protein, UniProt O60841 1-1220, looked up)
Eukaryotic translation …: MGKKQKNKSEDSTKDDIDLDALAAEIEGAGAAKEQEPQKSKGKKKKEKKKQDFDEDDILKELEELSLEAQGIKADRETVAVKPTENNEEEFTSKDKKKKGQKGKKQSFDDNDSEELEDKDSKSKKTAKPKVEMYSGSDDDDDFNKLPKKAKGKAQKSNKKWDGSEEDEDNSKKIKERSRINSSGESGDESDEFLQSRKGQKKNQKNKPGPNIESGNEDDDASFKIKTVAQKKAEKKERERKKRDEEKAKLRKLKEKEELETGKKDQSKQKESQRKFEEETVKSKVTVDTGVIPASEEKAETPTAAEDDNEGDKKKKDKKKKKGEKEEKEKEKKKGPSKATVKAMQEALAKLKEEEERQKREEEERIKRLEELEAKRKEEERLEQEKRERKKQKEKERKERLKKEGKLLTKSQREARARAEATLKLLQAQGVEVPSKDSLPKKRPIYEDKKRKKIPQQLESKEVSESMELCAAVEVMEQGVPEKEETPPPVEPEEEEDTEDAGLDDWEAMASDEETEKVEGNKVHIEVKENPEEEEEEEEEEEEDEESEEEEEEEGESEGSEGDEEDEKVSDEKDSGKTLDKKPSKEMSSDSEYDSDDDRTKEERAYDKAKRRIEKRRLEHSKNVNTEKLRAPIICVLGHVDTGKTKILDKLRHTHVQDGEAGGITQQIGATNVPLEAINEQTKMIKNFDRENVRIPGMLIIDTPGHESFSNLRNRGSSLCDIAILVVDIMHGLEPQTIESINLLKSKKCPFIVALNKIDRLYDWKKSPDSDVAATLKKQKKNTKDEFEERAKAIIVEFAQQGLNAALFYENKDPRTFVSLVPTSAHTGDGMGSLIYLLVELTQTMLSKRLAHCEELRAQVMEVKALPGMGTTIDVILINGRLKEGDTIIVPGVEGPIVTQIRGLLLPPPMKELRVKNQYEKHKEVEAAQGVKILGKDLEKTLAGLPLLVAYKEDEIPVLKDELIHELKQTLNAIKLEEKGVYVQASTLGSLEALLEFLKTSEVPYAGINIGPVHKKDVMKASVMLEHDPQYAVILAFDVRIERDAQEMADSLGVRIFSAEIIYHLFDAFTKYRQDYKKQKQEEFKHIAVFPCKIKILPQYIFNSRDPIVMGVTVEAGQVKQGTPMCVPSKNFVDIGIVTSIEINHKQVDVAKKGQEVCVKIEPIPGESPKMFGRHFEATDILVSKISRQSIDALKDWFRDEMQKSDWQLIVELKKVFEII
B4: DHX36 (protein, UniProt Q9H2U1 1-1008, looked up)
ATP-dependent DNA/RNA …: MSYDYHQNWGRDGGPRSSGGGYGGGPAGGHGGNRGSGGGGGGGGGGRGGRGRHPGHLKGREIGMWYAKKQGQKNKEAERQERAVVHMDERREEQIVQLLNSVQAKNDKESEAQISWFAPEDHGYGTEVSTKNTPCSENKLDIQEKKLINQEKKMFRIRNRSYIDRDSEYLLQENEPDGTLDQKLLEDLQKKKNDLRYIEMQHFREKLPSYGMQKELVNLIDNHQVTVISGETGCGKTTQVTQFILDNYIERGKGSACRIVCTQPRRISAISVAERVAAERAESCGSGNSTGYQIRLQSRLPRKQGSILYCTTGIILQWLQSDPYLSSVSHIVLDEIHERNLQSDVLMTVVKDLLNFRSDLKVILMSATLNAEKFSEYFGNCPMIHIPGFTFPVVEYLLEDVIEKIRYVPEQKEHRSQFKRGFMQGHVNRQEKEEKEAIYKERWPDYVRELRRRYSASTVDVIEMMEDDKVDLNLIVALIRYIVLEEEDGAILVFLPGWDNISTLHDLLMSQVMFKSDKFLIIPLHSLMPTVNQTQVFKRTPPGVRKIVIATNIAETSITIDDVVYVIDGGKIKETHFDTQNNISTMSAEWVSKANAKQRKGRAGRVQPGHCYHLYNGLRASLLDDYQLPEILRTPLEELCLQIKILRLGGIAYFLSRLMDPPSNEAVLLSIRHLMELNALDKQEELTPLGVHLARLPVEPHIGKMILFGALFCCLDPVLTIAASLSFKDPFVIPLGKEKIADARRKELAKDTRSDHLTVVNAFEGWEEARRRGFRYEKDYCWEYFLSSNTLQMLHNMKGQFAEHLLGAGFVSSRNPKDPESNINSDNEKIIKAVICAGLYPKVAKIRLNLGKKRKMVKVYTKTDGLVAVHPKSVNVEQTDFHYNWLIYHLKMRTSSIYLYDCTEVSPYCLLFFGGDISIQKDNDQETIAVDEWIVFQSPARIAHLVKELRKELDILLQEKIESPHPVDWNDTKSRDCAVLSAIIDLIKTQEKATPRNFPPRFQDGYYS
B5: PI4KB (protein, UniProt Q9UBF8 2-816, looked up)
Phosphatidylinositol 4-kinase …: GDTVVEPAPLKPTSEPTSGPPGNNGGSLLSVITEGVGELSVIDPEVAQKACQEVLEKVKLLHGGVAVSSRGTPLELVNGDGVDSEIRCLDDPPAQIREEEDEMGAAVASGTAKGARRRRQNNSAKQSWLLRLFESKLFDISMAISYLYNSKEPGVQAYIGNRLFCFRNEDVDFYLPQLLNMYIHMDEDVGDAIKPYIVHRCRQSINFSLQCALLLGAYSSDMHISTQRHSRGTKLRKLILSDELKPAHRKRELPSLSPAPDTGLSPSKRTHQRSKSDATASISLSSNLKRTASNPKVENEDEELSSSTESIDNSFSSPVRLAPEREFIKSLMAIGKRLATLPTKEQKTQRLISELSLLNHKLPARVWLPTAGFDHHVVRVPHTQAVVLNSKDKAPYLIYVEVLECENFDTTSVPARIPENRIRSTRSVENLPECGITHEQRAGSFSTVPNYDNDDEAWSVDDIGELQVELPEVHTNSCDNISQFSVDSITSQESKEPVFIAAGDIRRRLSEQLAHTPTAFKRDPEDPSAVALKEPWQEKVRRIREGSPYGHLPNWRLLSVIVKCGDDLRQELLAFQVLKQLQSIWEQERVPLWIKPYKILVISADSGMIEPVVNAVSIHQVKKQSQLSLLDYFLQEHGSYTTEAFLSAQRNFVQSCAGYCLVCYLLQVKDRHNGNILLDAEGHIIHIDFGFILSSSPRNLGFETSAFKLTTEFVDVMGGLDGDMFNYYKMLMLQGLIAARKHMDKVVQIVEIMQQGSQLPCFHGSSTIRNLKERFHMSMTEEQLQLLVEQMVDGSMRSITTKLYDGFQYLTNGIM
B6: PFKFB2 (protein, UniProt O60825 2-505, looked up)
6-phosphofructo-2-kinase/fruct …: SGASSSEQNNNSYETKTPNLRMSEKKCSWASYMTNSPTLIVMIGLPARGKTYVSKKLTRYLNWIGVPTKVFNLGVYRREAVKSYKSYDFFRHDNEEAMKIRKQCALVALEDVKAYLTEENGQIAVFDATNTTRERRDMILNFAEQNSFKVFFVESVCDDPDVIAANILEVKVSSPDYPERNRENVMEDFLKRIECYKVTYRPLDPDNYDKDLSFIKVINVGQRFLVNRVQDYIQSKIVYYLMNIHVQPRTIYLCRHGESEFNLLGKIGGDSGLSVRGKQFAQALRKFLEEQEITDLKVWTSQLKRTIQTAESLGVPYEQWKILNEIDAGVCEEMTYAEIEKRYPEEFALRDQEKYLYRYPGGESYQDLVQRLEPVIMELERQGNVLVISHQAVMRCLLAYFLDKGADELPYLRCPLHTIFKLTPVAYGCKVETIKLNVEAVNTHRDKPTNNFPKNQTPVRMRRNSFTPLSSSNTIRRPRNYSVGSRPLKPLSPLRAQDMQEGAD
B7: SRSF7 (protein, UniProt Q16629 1-238, looked up)
Serine/arginine-rich splicing …: MSRYGRYGGETKVYVGNLGTGAGKGELERAFSYYGPLRTVWIARNPPGFAFVEFEDPRDAEDAVRGLDGKVICGSRVRVELSTGMPRRSRFDRPPARRPFDPNDRCYECGEKGHYAYDCHRYSRRRRSRSRSRSHSRSRGRRYSRSRSRSRGRRSRSASPRRSRSISLRRSRSASLRRSRSGSIKGSRYFQSPSRSRSRSRSISRPRSSRSKSRSPSPKRSRSPSGSPRRSASPERMD

tested on: GFP-14-3-3β and its binding proteins; assay: GFP-14-3-3β co-IP with LC-MS/MS label-free quantification, untreated versus PP1c-treated; design: species or system human; settings: log2 difference; pairwise comparison PP1 vs untreated, label-free quantification, 3 replicates each

Molecule | Difference (log2), PP1 vs untreated
B1 | 1.464
B2 | 1.455
B3 | 1.436
B4 | 1.434

same assay, conditions: pairwise comparison PP1 vs untreated, student's t-test; 3 replicates each; LC-MS/MS label-free quantification

Molecule | Difference (log2), PP1 vs untreated [log2]
B5 | -5.63
B6 | -5.844
B7 | -6.84

tested on: GFP-14-3-3β; assay: GFP-14-3-3β co-IP with LC-MS/MS, untreated GFP-14-3-3β versus GFP control (14-3-3 interactome); format: binding, human; settings: log2 difference; pairwise comparison untreated vs GFP, label-free quantification, 3 replicates each

Molecule | Difference (log2), untreated vs GFP
B1 | 0.8168
B2 | -1.013
B3 | 0.212
B4 | 0.06686

same assay, conditions: pairwise comparison untreated GFP-14-3-3β vs GFP, student's t-test; 3 replicates each; LC-MS/MS label-free quantification

Molecule | Difference (log2), untreated vs GFP [log2]
B5 | 4.864
B6 | 3.999
B7 | 7.205
